Patent US20180030137A1 (ADURO BIOTECH HOLDINGS EUROPE B V, published 2018)
“And” between values parts separate entries of the source, which are not always exact repeats. Identical values can stand only once.

Assays:
[1] = target: T1, Human PD-1 (Swiss-Prot entry Q15116), full length, on cells (human, UniProt Q15116 21-288); experiment: CELISA on CHO-K1.hPDCD1 cells
T1 construct: Full length open reading frame of hPD-1 stably expressed on CHO-K1 cells; also endogenous PD-1 on CD3/CD28-stimulated human CD3+ T cells and PD-1 on transfected Jurkat cells; also called hPD-1; hPDCD1
Method: (§1) To further characterize these mutant hPD-1 antibodies they were tested for binding to hPD-1 in CELISA format using CHO-K1 cells (American Type Culture Collection, Manassas, Va.), stably transfected with cDNA encoding the full length open reading frame of hPDCD1 (hPD-1), subcloned into the pCI-neo vector (Promega). Parental CHO-K1 or CHO-K1.hPDCD1 cells were seeded in culture medium (DMEM-F12 (Gibco) with 10% Fetal Bovine Serum (Hyclone) and Pen/Strep (Gibco)) in tissue culture plates and incubated for 48 hours at 37° C. Subsequently culture medium was removed and cells were incubated for 1 hour at 37° C. with the mutant hPD-1 antibodies (10 μg/ml (=66 nM) and dilutions thereof). Next, cells were washed with Phosphate-Buffered Saline/0.05% Tween (PBST) and incubated for 1 hour at 37° C. with Goat-anti-human IgG-HRP (Southern Biotech). Subsequently, cells were washed 3 times with PBST and anti-hPD1 immunoreactivity was visualized with 100 al TMB Stabilized Chromagen (Invitrogen). Reactions were stopped with 100 al 0.5 M H2SO4 and absorbances were read at 450 and 610 nm. […] Blockade of hPD-L1 binding by the mutant hPD-1 antibodies was tested in CELISA format. […] Reactions were stopped with 100 al 0.5 M H2SO4 and absorbances were read at 450 and 610 nm. Calculated IC50 values in Table 12 for the blockade of hPD-L1 represent the concentration at which half of the inhibition is observed.

[2] = target: T2, Macaca fascicularis PD-1 (Swiss-Prot entry B0LAJ3), full length, on cells (Macaca fascicularis, UniProt Q15116 25-288 (human entry)); experiment: CELISA on CHO-K1 cells transiently transfected with cyno PD-1
T2 construct: Full length open reading frame transiently expressed on CHO-K1 cells; also endogenous PD-1 on CD3/CD28-stimulated cynomolgus PBMCs; No signal peptide limits are stated for the cynomolgus entry; also called cyno PD-1; cynomolgus PD-1
T2 chain: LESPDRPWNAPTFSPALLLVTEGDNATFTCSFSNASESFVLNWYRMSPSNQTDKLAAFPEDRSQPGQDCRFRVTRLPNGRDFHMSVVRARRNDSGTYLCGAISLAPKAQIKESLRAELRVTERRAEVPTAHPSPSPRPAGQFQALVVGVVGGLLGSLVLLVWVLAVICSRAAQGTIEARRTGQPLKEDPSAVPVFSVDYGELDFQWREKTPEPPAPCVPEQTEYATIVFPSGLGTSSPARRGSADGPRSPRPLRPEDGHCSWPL
Method: Parental CHO-K1 or CHO-K1.cynoPD1 cells were seeded in tissue culture plates and incubated for 48 hours at 37° C. Subsequently culture medium was removed and cells were incubated for 1 hour with purified hPD-1 antibodies (10 μg/ml (=66 nM) and dilutions thereof) at 37° C. Next, cells were washed with PBST and incubated for 1 hour at 37° C. with Goat-anti-human (Jackson Immuno Research). Subsequently, cells were washed 3 times with PBST and anti-hPD1 immunoreactivity was visualized with 100 μL TMB Stabilized Chromagen (Invitrogen). Reactions were stopped with 100 μL 0.5 M H2SO4 and absorbances were read at 450 and 610 nm.

[3] = target: T1, Human PD-1 (Swiss-Prot entry Q15116), …; experiment: CELISA on CHO-K1.hPDCD1 cells; blocking of biotinylated hPD-L1 Fc
Method: as §1

[4] = target: T1, Human PD-1 (Swiss-Prot entry Q15116), …; experiment: flow cytometry on CD3/CD28-stimulated human CD3+ T cells, three donors; CD3/CD28 stimulated human T cells, three donors
Method: (§2) Cells were stored in liquid nitrogen and retrieved from the freezer on the day of the experiment. Since endogenous expression of hPD-1 on resting T cells is low, the thawed CD3+ T cells were stimulated with αCD3/αCD28 coated beads (Gibco) for 48 hours.

[5] = target: T2, Macaca fascicularis PD-1 (Swiss-Prot …); experiment: flow cytometry, Binding (%), on anti-CD3/anti-CD28 stimulated cynomolgus PBMCs; animal #1 or #3, same marker in the legend
Method: To this end Macacaca fascicularis (cynomolgus) blood was diluted 1:1 with PBS and added to 50 ml tubes containing 13 ml Lymphoprep 95%/PBS 5%. Cells were centrifuged for 30′ at 450 g and 20° C. without brake. Next, plasma was removed by aspiration and PBMCs were recovered from the plasma/Ficoll interface. PBMCs were washed twice times in PBS. Cells were frozen in liquid nitrogen and retrieved from the freezer on the day of the experiment. Since endogenous expression of PD-1 on resting T cells is low thus the thawed PBMCs were stimulated with αCD3/αCD28 coated beads (Gibco) for 48 hours.

[6] = target: T1, Human PD-1 (Swiss-Prot entry Q15116), …; experiment: flow cytometry, Binding (%), on anti-CD3/anti-CD28 stimulated human CD3+ T cells; donor #1 or #3, same marker in the legend
Method: as §2

T1 sequence (Q15116 21-288, one chain of several): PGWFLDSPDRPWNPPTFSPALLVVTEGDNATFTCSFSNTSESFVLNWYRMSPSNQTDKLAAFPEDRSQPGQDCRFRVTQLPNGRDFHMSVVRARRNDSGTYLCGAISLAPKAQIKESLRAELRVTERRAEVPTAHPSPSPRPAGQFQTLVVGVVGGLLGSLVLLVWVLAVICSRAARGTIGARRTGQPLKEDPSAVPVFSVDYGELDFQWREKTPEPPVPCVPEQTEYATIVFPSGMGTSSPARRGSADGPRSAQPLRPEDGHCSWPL

B1: hPD1.29H5L4 (antibody, V domains shown)
VH: EVQLVQSGAEVKKPGASVKVSCKASGYIFTTYYIHWVKQAPGKGLEWIGWIFPGDVSTQYNEKFQDKATITVDKSASTAYMQLSSLRSEDTAVYYCTREAYDYAVYWGQGTLVTVSS
VL: DIQMTQAPSSLSASVGDRVTITCKASQNVDTNVAWFQQKPGKAPKSLIFSASYRYSGVPSRFSGSGSGTDFTLTISSLQPEDFATYYCQQYNNYPFTFGGGTKLEIK
notes: Expressed as human IgG4, kappa with the stabilizing S241P (Kabat) hinge mutation in HEK293 cells; also called humanized PD-1 antibody hPD1.29H5L4
[1]
  EC50: 0.13 nM
[2]
  EC50: 0.45 nM
[3]
  IC50: 0.7 nM
[4]
  EC50: 0.27 nM
[5]
  EC50 (read off the curve): ~1 nM and ~2 nM
[6]
  EC50 (read off the curve): ~0.2 nM and ~0.3 nM
